{"source": "patent US8822645B2", "about": "“Prostaglandin E2 dual variable domain immunoglobulins and uses thereof” (AbbVie Inc., priority 2008, dated 2014)", "molecules": {"B1": {"name": "DVD152: DVD-Ig construct listed in Table 4 (antibody)", "VH": "EVQLQESGPGLVRPSQTLSLTCTVSGYSITSDHAWSWVRQPPGRGLEWIGYISYSGITTYNPSLKSRVTMLRDTSKNQFSLRLSSVTAADTAVYYCARSLARTTAMDYWGQGSLVTVSSASTKGPEVQLVQSGAEVKKPGASVKVSCKASGYTFTKYWLGWVRQAPGQGLEWMGDIYPGYDYTHYNEKFKDRVTLTTDTSTSTAYMELRSLRSDDTAVYYCARSDGSSTYWGQGTLVTVSS", "VL": "DIQMTQSPSSLSASVGDRVTITCRASQDISSYLNWYQQKPGKAPKLLIYYTSRLHSGVPSRFSGSGSGTDFTFTISSLQPEDIATYYCQQGNTLPYTFGQGTKVEIKRTVAAPDVLMTQTPLSLPVTPGEPASISCTSSQNIVHSNGNTYLEWYLQKPGQSPQLLIYKVSNRFSGVPDRFSGSGSGTDFTLKISRVEAEDVGVYYCFQVSHVPYTFGGGTKVEIKR"}}, "key": {"[1]": {"experiment": "Size exclusion chromatography, percent monomer of parent antibodies and DVD-Ig constructs", "type": "physicochemical", "experimental": "Antibodies were diluted to 2.5 mg/mL with water and […] is analyzed on a Shimadzu HPLC system using a TSK gel G3000 SWXL column (Tosoh Bioscience, cat#k5539-05k). […] The HPLC system operating conditions are the following: […]"}, "[2]": {"test_system": "PGE2 / human EP4 receptor in HEK293 Gα16 cells", "experiment": "EP4 bioassay (Ca++ flux, neutralization of PGE2)", "type": "cell-based", "details": "PGE2 VD in C-terminal position; EP4 bioassay, Ca++ flux; read-out: C-terminal VD PGE2 Neutralization EC50", "outline": "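Ca++ flux (FLIPR) in HEK293 Gα16 cells stably expressing human EP4, loaded with Ca++-sensitive dye for 90 min. PGE2, alone or pre-incubated with anti-PGE2 antibody, DVD-Ig or isotype control, was added in FLIPR buffer (HBSS, 20 mM HEPES, 0.1% BSA, 2.5 mM probenecid). EC50 derived from PGE2 dose-response.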"}}, "data": [{"molecule": "B1", "values": [{"measurement": "% Monomer (purity)", "setting": "[1]", "result": 87.6, "unit": "%"}, {"measurement": "EC50", "setting": "[2]", "result": 0.025, "unit": "nM"}]}]}
